From publication PMC2871135, “Engineering Cofactor Preference of Ketone Reducing Biocatalysts: A Mutagenesis Study on a γ-Diketone Reductase from the Yeast Saccharomyces cerevisiae Serving as an Example” (International Journal of Molecular Sciences, 2010)

B1: Gre2p (Saccharomyces cerevisiae S288C) (protein)
chain: MSVFVSGANGFIAQHIVDLLLKEDYKVIGSARSQEKAENLTEAFGNNPKFSMEVVPDISKLDAFDHVFQKHGKDIKIVLHTASPFCFDITDSERDLLIPAVNGVKGILHSIKKYAADSVERVVLTSSYAAVFDMAKENDKSLTFNEESWNPATWESCQSDPVNAYCGSKKFAEKAAWEFLEENRDSVKFELTAVNPVYVFGPQMFDKDVKKHLNTSCELVNSLMHLSPEDKIPELFGGYIDVRDVAKAHLVAFQKRETIGQRLIVSEARFTMQDVLDILNEDFPVLKGNIPVGKPGSGATHNTLGATLDNKKSKKLLGFKFRNLKETIDDTASQILKFEGRI
notes: GRE2 subcloned from p423-GPD-YOL151w into pRSET B, expressed in E. coli BL21(DE3) pLysS
B2: Gre2p (Saccharomyces cerevisiae S288C; N9E) (protein)
chain: MSVFVSGAEGFIAQHIVDLLLKEDYKVIGSARSQEKAENLTEAFGNNPKFSMEVVPDISKLDAFDHVFQKHGKDIKIVLHTASPFCFDITDSERDLLIPAVNGVKGILHSIKKYAADSVERVVLTSSYAAVFDMAKENDKSLTFNEESWNPATWESCQSDPVNAYCGSKKFAEKAAWEFLEENRDSVKFELTAVNPVYVFGPQMFDKDVKKHLNTSCELVNSLMHLSPEDKIPELFGGYIDVRDVAKAHLVAFQKRETIGQRLIVSEARFTMQDVLDILNEDFPVLKGNIPVGKPGSGATHNTLGATLDNKKSKKLLGFKFRNLKETIDDTASQILKFEGRI
notes: as for B1

What was measured:
[1] = substrate: NC(=O)C1=CN([C@@H]2O[C@H](COP(=O)(O)OP(=O)(O)OC[C@H]3O[C@@H](n4cnc5c(N)ncnc54)[C@H](OP(=O)(O)O)[C@@H]3O)[C@@H](O)[C@H]2O)C=CC1; test: cells, lysate or membranes; type: biochemical, Saccharomyces cerevisiae; conditions: 10 mM 2,5-hexanedione as co-substrate, sodium phosphate pH 7.0, 30 °C, cofactor varied 0.1-4 mM, enzyme enriched from E. coli extract, not homogeneous
[2] = substrate: NC(=O)C1=CN([C@@H]2O[C@H](COP(=O)(O)OP(=O)(O)OC[C@H]3O[C@@H](n4cnc5c(N)ncnc54)[C@H](O)[C@@H]3O)[C@@H](O)[C@H]2O)C=CC1; test: cells, lysate or membranes; type: biochemical, Saccharomyces cerevisiae; conditions: 10 mM 2,5-hexanedione as co-substrate, sodium phosphate pH 7.0, 30 °C, cofactor varied 0.1-4 mM, enzyme enriched from E. coli extract, not homogeneous

Row | Protein | Km [1] [mM] | Vmax [1] [µmol/min/mg] | Km [2] [mM] | Vmax [2] [µmol/min/mg]
1 | B1 | 0.038 | 0.288 | 1.45 | 0.081
2 | B2 | 1.52 | 0.272 | 0.96 | 0.147
